Assay results published in the supplement of paper PMC9112550, “Optimization of the antimicrobial peptide Bac7 by deep mutational scanning” (BMC Biology, 2022).

These sequences were tested on Escherichia coli TOP10 (assay: shrunken log2 fold change of peptide-encoding DNA abundance (4.5 h post-induction vs induction); higher = less antimicrobial activity (less host growth inhibition)). Conditions: time post-induction: 4.5 h; library: site-saturation at positions 5, 18, 19, 20.
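Also: peptides expressed intracellularly from a pBAD plasmid library in pooled LB shake-flask culture, induced with 0.3% L-arabinose, DNA abundance read by NGS, three biological replicates, DESeq2 with apeglm shrinkage.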

Row | Sequence | shrunken log2 fold change
1 | RRIRERPPRLPRPRPRPCALPRP | -0.319
2 | RRIRHRPPRLPRPRPRPGHQPRP | -0.149
3 | RRIRYRPPRLPRPRPRPLGDPRP | -0.079
4 | RRIRSRPPRLPRPRPRPRQVPRP | 0.109
5 | RRIRVRPPRLPRPRPRPIKEPRP | -0.327
6 | RRIRLRPPRLPRPRPRPWMYPRP | -0.0417
7 | RRIRKRPPRLPRPRPRPNFKPRP | 0.166
8 | RRIRKRPPRLPRPRPRPEAHPRP | 0.151
9 | RRIRVRPPRLPRPRPRPRYCPRP | -0.144
10 | RRIRNRPPRLPRPRPRPIYPPRP | -0.246
11 | RRIRMRPPRLPRPRPRPWMTPRP | 0.0698
12 | RRIRKRPPRLPRPRPRPALDPRP | 0.772
13 | RRIRPRPPRLPRPRPRPWWSPRP | 0.361
14 | RRIRQRPPRLPRPRPRPLQRPRP | -0.0166
15 | RRIRVRPPRLPRPRPRPAVCPRP | 0.258
16 | RRIRPRPPRLPRPRPRPNSNPRP | -0.762
17 | RRIRIRPPRLPRPRPRPRMEPRP | -0.00396
18 | RRIRMRPPRLPRPRPRPCIKPRP | 0.0207
19 | RRIRDRPPRLPRPRPRPHLAPRP | 0.302
20 | RRIRPRPPRLPRPRPRPDEYPRP | -0.015
21 | RRIRIRPPRLPRPRPRPFRHPRP | -0.219

Row | Sequence | shrunken log2 fold change
22 | RRIRDRPPRLPRPRPRPACMPRP | 0.242
23 | RRIRTRPPRLPRPRPRPWRLPRP | -0.127
24 | RRIRARPPRLPRPRPRPRMVPRP | 0.686
25 | RRIRVRPPRLPRPRPRPSPDPRP | -0.226
26 | RRIRARPPRLPRPRPRPMTGPRP | 0.0159
27 | RRIRARPPRLPRPRPRPTFYPRP | -0.00745
28 | RRIRNRPPRLPRPRPRPIPYPRP | -0.0122
29 | RRIRPRPPRLPRPRPRPSPSPRP | 0.132
30 | RRIRHRPPRLPRPRPRPKVKPRP | 0.235
31 | RRIRIRPPRLPRPRPRPEEKPRP | 0.461
32 | RRIRWRPPRLPRPRPRPGEMPRP | 0.0495
33 | RRIRIRPPRLPRPRPRPPDYPRP | -0.0646
34 | RRIRFRPPRLPRPRPRPRMTPRP | 0.128
35 | RRIRCRPPRLPRPRPRPYPTPRP | -0.517
36 | RRIRMRPPRLPRPRPRPFNQPRP | -0.0903
37 | RRIRDRPPRLPRPRPRPGPTPRP | 0.355
38 | RRIRVRPPRLPRPRPRPWADPRP | -0.0322
39 | RRIRHRPPRLPRPRPRPTRRPRP | 0.271
40 | RRIRLRPPRLPRPRPRPEWVPRP | 0.36
41 | RRIRLRPPRLPRPRPRPKNSPRP | -0.27
42 | RRIRNRPPRLPRPRPRPDAGPRP | 0.391

Row | Sequence | shrunken log2 fold change
43 | RRIRDRPPRLPRPRPRPPFMPRP | 0.042
44 | RRIRQRPPRLPRPRPRPALAPRP | 0.73
45 | RRIRTRPPRLPRPRPRPKALPRP | 0.293
46 | RRIRLRPPRLPRPRPRPCQPPRP | -0.0919
47 | RRIRYRPPRLPRPRPRPPTPPRP | 0.104
48 | RRIRLRPPRLPRPRPRPRSAPRP | 0.29
49 | RRIRQRPPRLPRPRPRPNTDPRP | -0.166
50 | RRIRQRPPRLPRPRPRPENQPRP | 0.128
51 | RRIRERPPRLPRPRPRPLGLPRP | -0.00554
52 | RRIRKRPPRLPRPRPRPGLDPRP | 0.626
53 | RRIRPRPPRLPRPRPRPTHKPRP | 0.283
54 | RRIRSRPPRLPRPRPRPHHGPRP | -0.0421
55 | RRIRIRPPRLPRPRPRPQKDPRP | -0.421
56 | RRIRGRPPRLPRPRPRPSITPRP | 0.0975
57 | RRIRFRPPRLPRPRPRPDSCPRP | -0.011
58 | RRIRTRPPRLPRPRPRPYTLPRP | -0.000759
59 | RRIRTRPPRLPRPRPRPSESPRP | 0.122
60 | RRIRNRPPRLPRPRPRPMARPRP | 0.0994
61 | RRIRDRPPRLPRPRPRPGIDPRP | -0.245
62 | RRIRNRPPRLPRPRPRPEINPRP | 0.0636
63 | RRIRARPPRLPRPRPRPTTVPRP | 0.45
